Data as given in paper PMC12617615, “Decoding substrate recognition in malapain-2 through structural and mutational insights” (Computational and Structural Biotechnology Journal, 2025).

How the values were obtained:
[1] = test system: Cc1cc(=O)oc2cc(NC(=O)[C@H](CCCNC(=N)N)NC(=O)[C@H](CCCNC(=N)N)NC(=O)OCc3ccccc3)ccc12; assay: purified protein; conditions: 100 mM sodium acetate pH 5.0, 10 mM DTT, 37 °C, 20 nM enzyme, substrate range 0.1–100 μM
Description: (§1) fluorogenic AMC release, Michaelis-Menten on malapain-2 (MP-2)

[2] = test system: Cc1cc(=O)oc2cc(NC(=O)[C@H](CCCNC(=N)N)NC(=O)[C@H](CC(C)C)NC(=O)OCc3ccccc3)ccc12; assay: purified protein; conditions: 100 mM sodium acetate pH 5.0, 10 mM DTT, 37 °C, 20 nM enzyme, substrate range 0.1–100 μM
Description: as §1

## malapain-2 (MP-2) (Plasmodium malariae)
[1]
  Km: 846.4 ± 0.6 µM
[2]
  Km: 111.2 ± 1.2 µM
